Assay results reported in patent US7041498 (SALK INSTITUTE FOR BIOLOGICAL STUDIES, dated 2006).

Biological target: T1, GAL4 linked to the FAR ligand binding domain (GAL4-FAR184-469) (yeast; rat, UniProt P04386 1-147)
T1 construct: range 1-147; Two-hybrid bait expressed in CV-1 cells from a CMV promoter vector; also called GAL4-FAR chimera; FAR LBD
Test: mammalian two-hybrid in CV-1 cells, GAL4 UAS luciferase reporter

Binder | binding result
VP16 transactivation domain linked to the LBD of VDR (VP-VDR92-427) (other, range 92-427) EFILTDEEVQRKREMILKRKEEEALKDSLRPKLSEEQQRIIAILLDAHHKTYDPTYSDFCQFRPPVRVNDGGGSHPSRPNSRHTPSFSGDSSSSCSDHCITSSDMMDSSSFSNLDLSEEDSDDPSVTLELSQLSMLPHLADLVSYSIQKVIGFAKMIPGFRDLTSEDQIVLLKSSAIEVIMLRSNESFTMDDMSWTCGNQDYKYRVSDVTKAGHSLELIEPLIKFQVGLKKLNLHEEEHVLLMAICIVSPDRPGVQDAALIEAIQDRLSNTLQTYIRCRHPPPGSHLLYAKMIQKLADLRSLNEEHSKQYRCLSFQPECSMKLTPLVLEVFGNEIS | no binding
VP16 transactivation domain linked to the LBD of RARα (VP-RAR156-462) (other, range 156-462) ESVRNDRNKKKKEVPKPECSESYTLTPEVGELIEKVRKAHQETFPALCQLGKYTTNNSSEQRVSLDIDLWDKFSELSTKCIIKTVEFAKQLPGFTTLTIADQITLLKAACLDILILRICTRYTPEQDTMTFSDGLTLNRTQMHNAGFGPLTDLVFAFANQLLPLEMDDAETGLLSAICLICGDRQDLEQPDRVDMLQEPLLEALKVYVRKRRPSRPHMFPKMLMKITDLRSISAKGAERVITLKMEIPGSMPPLIQEMLENSEGLDTLSGQPGGGGRDGGGLAPPPGSCSPSLSPSSNRSSPATHSP | no binding
VP16 transactivation domain linked to the LBD of mouse PPARα (VP-PPAR155-468) (other, range 155-468; Two-hybrid prey expressed in CV-1 cells) YCRFHKCLSVGMSHNAIRFGRMPRSEKAKLKAEILTCEHDLKDSETADLKSLGKRIHEAYLKNFNMNKVKARVILAGKTSNNPPFVIHDMETLCMAEKTLVAKMVANGVEDKEAEVRFFHCCQCMSVETVTELTEFAKAIPGFANLDLNDQVTLLKYGVYEAIFTMLSSLMNKDGMLIAYGNGFITREFLKNLRKPFCDIMEPKFDFAMKFNALELDDSDISLFVAAIICCGDRPGLLNIGYIEKLQEGIVHVLKLHLQSNHPDDTFLFPKLLQKMVDLRQLVTEHAQLVQVIKKTESDAALHPLLQEIYRDMY | no binding
